Consider 22 sequences from the DeepSol protein solubility set.

A short description of this series: soluble on expression in E. coli; label from the status in PepcDB or PDB records.
On to “PFKESQARGLLQDNMANSYNGGDFEDGLLNLSKEVFPTDKYLYQDGQFLDKKTINAYLNPKYTKREIDKMSEKDKKDKKANENLGLNPSHEGETNPEKIAEKSPAYLSNILEQDFYGGGDTKGKNIKGMTIGLAMNSVYYYKKEKDGPTFSKKLDDSEVKKQGKQMASEILSRLRENDDLKDIPIHFAIYKQSSEDSITPGEFITQATAEKSQTKLNEWHNINEKSALLPSSTAADYDENLNNNFKQFNDNLQSYFSNFTQAVGKVKFVDKKPQRLVVDLPIDYYGQAETIGITQYVTEQANKYFDKIDNYEIRIKDGNQPRALISKTKDDKEPQV”, for which the “soluble on expression in E. coli” value is on record as “not soluble”.

As to “MGSSHHHHHHSSGLVPRGSHMSNQEAIGLIDSGVGGLTVLKEALKQLPNERLIYLGDTARCPYGPRPAEQVVQFTWEMADFLLKKRIKMLVIACNTATAVALEEIKAALPIPVVGVILPGARAAVKVTKNNKIGVIGTLGTIKSASYEIAIKSKAPAIEVTSLACPKFVPIVESNQYRSSVAKKIVAETLQALQLKGLDTLILGCTHYPLLRPVIQNVMGSHVTLIDSGAETVGEVSMLLDYFDIAHTPEAPTQPHEFYTTGSAKMFEEIASSWLGIENLKAQQIHLGGNEND”, the “soluble on expression in E. coli” value was “soluble”.

For “MAHAPARCPSARGSGDGEMGKPRNVALITGITGQDGSYLAEFLLEKGYEVHGIVRRSSSFNTGRIEHLYKNPQAHIEGNMKLHYGDLTDSTCLVKIINEVKPTEIYNLGAQSHVKISFDLAEYTADVDGVGTLRLLDAVKTCGLINSVKFYQASTSELYGKVQEIPQKETTPFYPRSPYGAAKLYAYWIVVNFREAYNLFAVNGILFNHESPRRGANFVTRKISRSVAKIYLGQLECFSLGNLDAKRDWGHAKDYVEAMWLMLQNDEPEDFVIATGEVHSVREFVEKSFLHIGKTIVWEGKNENEVGRCKETGKVHVTVDLKYYRPTEVDFLQGDCTKAKQKLNWKPRVAFDELVREMVHADVELMRTNPNA”, the “soluble on expression in E. coli” value is “not soluble”.

Turning to “MSLNERVMMINANGVPIALYNRGHLGSGHFGAVIKASLDDGTLYAAKVPYSQIVPNADATSAELEAEISSARAELVKTIRQELDVRDKLVAKGLTLTETAEQYGLPLCQMTLTLPENKATVVRRGSRLVVVSKEVMLLPLIDGSPSNSLVQSQPPFLFQRAVAREAIIALAKLHELGFAHGDVKLNNMMIDVHGFGHMLDMGSVRPVDSCVSEEDKYYLRLWAPELAKSQHTSQQTCLKRGALDVWALGLAIFEFVCFNRLPYSLSNLPSSLWSRVEHLSRLRLSDFSAKDCNESDPAVMGIVAQFLNPNPEERPELPKFVSSYTFFRQAPGVTSHLTRIPTTELSSHREGHHHHHH”, the “soluble on expression in E. coli” value is listed as “soluble”.

In the case of “MGSGRTWRELKEVFPKLARAKYYTRARYGYCRGYEAVDFVESVRWYYYVLSGLVVLDRPEAKHLEHHHHHH”, the “soluble on expression in E. coli” value is reported as “not soluble”.

As for “MSLDAAAATLPRKSGSVDRLVRLAEADMAGVNRLITDRMQSDVAIIPALAEHLIAAGGKRLRPLMTVAAARLAGADNDHFQKLAAAVEFIHTATLLHDDVVDGSQLRRGKVAAHLIWGGAQSVLVGDFLFARAFELMVETNSMKALEILARASRVIAEGEVLQLMRSHDLNLSQAVYLEIIQAKTAELFAAASEAGAVSAGVDVAESEALRDYGLNLGLAFQLADDALDYGGATETLGKNAGDDFREGKATLPLLLAIARSGPREAEFWERAIGRREQTEADFRRARELIIGSGALDATLDLAADYADKAKAALAMFPANDWREALEELADFAVSRRAEGHHHHHH”, the “soluble on expression in E. coli” value is “soluble”.

Turning to “MSLEEFVKTGKTVCILINKQGRIYYSNIGKDVAEKCLEDIHIFDHLPADGTVSYNVGYYTVTADTVDLDEAHYYLILIQPQGNLYKYAYRDSFTGLYNRNYWEQLISGKMHRPIPKRFTLIVIDVDNLKSLNDNRGHLAGDKAIRIVGKSIRESIRKQDIAVRYGGDEFFILLANTKKAIVEKVINRVKENIRKRGKEENIHIEISVGMACSNSINKLEKVITMADYNMYKEKREKKVQVKHIGEGHHHHHH”, the “soluble on expression in E. coli” value is reported as “not soluble”.

In the case of “MEKKVGTDRVKRGMAQMQKGGVIMDVVNAEQAKIAEEAGAVAVMALERVPSDIRAAGGVARMADPRIVEEVMNAVSIPVMAKARIGHITEARVLEAMGVDYIDESEVLTPADDEFHLLKSDFTVPFVCGCRDIGEALRRIGEGAAMLRTKGEPGTGNIVEAVRHMRQVNGQIRQIASMTDDELMVAAKNFGAPYELVKEIKTLGKLPVVNFAAGGVATPADAALMMELGADGVFVGSGIFKSDNPAKFASAIVQATTYYTDYE”, the “soluble on expression in E. coli” value is given as “not soluble”.

“FLNTISTKDFKQKMADKTTGFVYVGRPTCEDCQAFQPILKKELEKRQPDQKMAYYNTDKASEKSRDDMIALLKKMDIDSVPTMVYLKDGKVASTYAATDEPAKLTNWMNKVSGEVSE”: the “soluble on expression in E. coli” value was “soluble”.

Regarding “MNSFRWDIYFETGIEDVDDQHQYLVEFINKYGKLLTRNTISIADIQSALFELSRYAEFYFKEEENLMREVGIHHEHLQKHIQVHRTFMGDIVSMQSFINEDNRQSAEQLLDFLIHWLAYHILGIDQNMAKQIKAIERGVSPLEAYREQEQQANASTEP”, the “soluble on expression in E. coli” value is recorded as “soluble”.

Take “MGSDKIHHHHHHMNFSTTEIQTIFNANEAASAVLNQALEAAAQGTFAVGGMIVDNQTGNVICAMHNNVLKPLFGSSQNFTFDPTAHGERQLVYWYYANRHQLNLPDPEYLTIITTLDPCAMCAGTLLTAGFNVGVIAIDDFAGINYNQTFNFDTLPPDLRPLAKRKFGYYACGIKGVDPDIYVRGYVGGPNVAFKDSVVSVQNLTGCNNVFQANVEAVRNNSSNSGKAPQELFDPAALPDDAPVKLRYRELYADAFRLKIDNPRLPDKNLLDLLLYVKGSNPTAQNAVALLDPFGNVVLCMPDTFENSPVETAFMNVTQAYAITRYQLMNDPFARAQAYDYLTHPKYGTFVFLNAPNPADARTIMTLGAYGSTMEGPVPQIFPSNFQYYFLPQYGTEREFRLDIMNLPPFYTQLAQLSAMQVANY”: the “soluble on expression in E. coli” value is on record as “not soluble”.

For the sequence “MGSDKIHHHHHHVDTGNRPSILRMPAQEDFVRFKPGFGTRFLLTVDTEEEFDWSKPLDRTSHGLHHVPRLAKFQQFCEGVGVVPVYLVDFPVASDPRAADILRDAVHAGKAEIGVQLHPWVSPPHDEDVNVHNSFAGNLAPELERAKFRKLRDTIEQAFGVGPLIYRAGRYGVGPATASILSDCAIAIDTSVRSRFDYSSAGGPNFREYPLRPWWIDKRNGLMEMPLTTVFSGLLRQQGQTIYPALWRVPRLRGALARIGMLERIPLTPEGVTLDEAIKGIDMALDDGLEMLVFSFHSPSLCPGHTPYVRDESDLDLFYAWWRGVLTYMQQRNVKPTCVREIMEAAEI”, the “soluble on expression in E. coli” value was “not soluble”.

As to “GRPVITTSIVQDQGIDELEAAIASLFFESGIESGDVTYVSNSRHIALLEQAKRAVEDALEAIEMDVPIDMVQIDITRAWELLGEIIGDSVHESLIDQLFSQFCLG”, the “soluble on expression in E. coli” value is “soluble”.

On to “MSRRAGTPTAKKVTQLVNVEEHVEGFRQVREAHRRELIDDYVELISDLIREVGEARQVDMAARLGVSQPTVAKMLKRLATMGLIEMIPWRGVFLTAEGEKLAQESRERHQIVENFLLVLGVSPEIARRDAEGMEHHVSEETLDAFRLFTQKHGAK”, for which the “soluble on expression in E. coli” value is recorded as “soluble”.

For “ESLSGEDAFPYRHQIVEIPPIELIVIEHRLHQLTCGQCGTNTRAKLPDDVNPSEYGVRVVAMVALLSGVYRNSQRMVQSALADLFGISMSLGTVNTLRIEANNAVANCVDEAKLYVQHSNVVGADETGFNQGNIDGGNPKQRQAWLWVGVTPLVTFFEVALTRCTSAVKNLLGENFAGILTSDRHGAYNWVDI”, the “soluble on expression in E. coli” value is on record as “not soluble”.

For the sequence “MGSDKIHHHHHHVKFFVIGDVTVDHLYHLDRLPAPGEEVAPTRATMKPGGAGGTISVTLARLGHSVTLAARVGDDPFAEYALASVRESGVLQAAIQIDPEHLTSTITVMQTPDGQRAMISDGAANRQLDPAKLKKKDIEGADALIVSAYSLTEGPQREYTLKAIETAKKAKKPVPVFIDLGTGAVNKVGTDLIENVIGADYLTLNQHELLALTDTTSISAALAQLGDAGARRVIVKVGRMGSIVWTPTETELVDPIKPEGRVVDSTGAGDTFTAAFAHAVLTGHSLPQAARIGNAAGALAATRVGAQARPITLADLEAALAR”, the “soluble on expression in E. coli” value was “not soluble”.

As to “MSLESGELIGACEFMKDRLYFATLRNRPKSTVNTHYFSIDEELVYENFYADFGPLNLAMVYRYCCKLNKKLKSYSLSRKKIVHYTCFDQRKRANAAFLIGAYAVIYLKKTPEEAYRALLSGSNPPYLPFRDASFGNCTYNLTILDCLQGIRKGLQHGFFDFETFDVDEYEHYERVENGDFNWIVPGKFLAFSGPHPKSKIENGYPLHAPEAYFPYFKKHNVTAVVRLNKKIYEAKRFTDAGFEHYDLFFIDGSTPSDNIVRRFLNICENTEGAIAVHCKAGLGRTGTLIACYVMKHYRFTHAEIIAWIRICRPGSIIGPQQHFLEEKQASLWVQGDIFRSKLKNRPSSEGEGHHHHHH”, the “soluble on expression in E. coli” value is “soluble”.

On to “MEHKEVVLLLLLFLKSGQGEPLDDYVNTQGPSLFSVTKKQLGAGSREECAAKCEEDKEFTCRAFQYHSKEQQCVIMAENRKSSIIIRMRDAVLFEK”, for which the “soluble on expression in E. coli” value is “not soluble”.

In the case of “MSSKKNFEVGENVACIYKGKPYDAKITDIKTNSDGKELYCVHFKGWNNRYDEKIPVGEEKDRIFKGTASEYAEKHNAELPTTALKPKKKSLAAEAPRDDRDDTPGTSKGKKAKSVTIAPVMTADDMKVELPKPLRKILIDDYDLVCRYFINIVPHEYSVDQIIEDYIKTIPVSNEQMRTVDDLLIEYEEADIKITNLALICTARGLVDYFNVTLGYQLLYKFERPQYNDLVKKRAMEKGIDITNPTALQDSGFRPSQEYGIVHFLRMLAKLPDYLKLTQWNDHVINRIMIGVHDLIVFLNKNHGKYYRGSSDYQGASNDYYRRSLAADDGVGANQ”, the “soluble on expression in E. coli” value was “not soluble”.

As to “MNTCRGQHGPRRPEAGAAGHRAHVDGGQRGPGGQQEPDWHKAGATIPRLPSPSGSPWRREQDPAPGEPPHIPAHGNRPGGQEIRPRIPGLDREARPAVPPTHSPSYRIRLAGSEPSLVQAAPGQAVQLFCPGNIPPEFQAGWQKEGRPISSNRYQLQADGSLIISRLRPEDAGIYSCGSHRPGHEPQEIQLRVTGGDMAVLPEGQPRHFPEPRNPDLGHGPPHRGTGAEAGGHRVLSPSHPRPATRLRLDRTQPGVVDASPGQRIRLTCRAEGFPVPTIEWQRDGQLVSSPRHQVQPDGSLVISRVDVEDGGYYSCVAFNGQDRDQRWVQLRVLRELTITGLPPAVTVAEGDTARLLCVVAGESVNIRWSRNGLPIQADGHRVHQSPDGTLLIHNLRPRDEGSYTCSAFRGSQAVSRSTEVKVALPAPAAQSRDLGKDCIDQPELANCALILQAQLCGNEYYSSFCCASCSRFQPNAQPVWQQG”, the “soluble on expression in E. coli” value was “soluble”.

Take “MGSDKIHHHHHHMPLSMNREVFITCAVTGSGGTQDRSPHVPRSPKEIAESAIAAAKAGAAIVHCHVRDPETGAPSRDLGLYREVTDRIRESDTDVVLNLTAGMGGDIVFGGVERPLPVTEDGTDMIGASARVAHVAECLPEICTLDCGTMNFAEADYVMTNTPGMLQAMGQMMTDLGVKPEIEAFDTGHLWYAKQLVKDGVLKSDALVQLCMGVPWGAPNDLNTFMAMVNNVPDDWNWSAFSLGRDQMAYVAASVLAGGNVRVGLEDNLYLDKGVLAENWQLVERAGTIVSNLGARVITPAEVREKLGLQKRAPITK”: the “soluble on expression in E. coli” value was “not soluble”.

Regarding “MSGARLHTLLPELTTRQPVMVVGAAVIDVIADAYALPWRGCDIELKQQSVNVGGCALNIAVALKRLGIEAGNALPLGQGVWAEIIRNRMAKEGLISLIDNAESDNGWCLALVEPDGERTFMSFSGVENQWNRQWLARLTVAPGNLLYFSGYQLASPCGELLVEWLEKLQDVTPFIDFCPRIGDIPDALLARIMACRPLVSLNRQEAEIAAERFALSAEITTLGKQWQEKFAAPLIVRLDKEGAWYFSNDASGCIPAFPTQVVDTIGAGDSHAGGVLAGLASGLPLADAVLLGNAVASWVVGHRGGDCAPTREELLLAHKNV”, the “soluble on expression in E. coli” value is “not soluble”.
